According to paper PMC5091667 (ACS chemical biology, 2016):
Bridges are numbered along the chain shown (N, C = ends).

Experiments:
CD58 (Homo sapiens) = CD58 (Homo sapiens) (UniProt P19256); settings: cited from earlier work
[1] = molecular target: T1, CD58 protein (purified cell-adhesion domain, domain 1) (UniProt P19256 29-215); assay: SPR
T1 sequence (looked up): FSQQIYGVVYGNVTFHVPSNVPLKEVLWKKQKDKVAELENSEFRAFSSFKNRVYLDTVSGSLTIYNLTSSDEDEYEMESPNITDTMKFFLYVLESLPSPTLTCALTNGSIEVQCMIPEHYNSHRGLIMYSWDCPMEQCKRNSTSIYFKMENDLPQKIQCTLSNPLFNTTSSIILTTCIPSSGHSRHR

CD2 (from UniProt P06729)
Kd (CD58 (Homo sapiens)): 10 µM

B1: SFTI-a (peptide)
peptide: cyclo(CKASAPPSCYDGDD)
modifications: disulfide 1-9
SMILES: C[C@@H]1NC(=O)[C@H](CCCCN)NC(=O)[C@@H]2CSSC[C@H](NC(=O)[C@H](CO)NC(=O)[C@@H]3CCCN3C(=O)[C@@H]3CCCN3C(=O)[C@H](C)NC(=O)[C@H](CO)NC1=O)C(=O)N[C@@H](Cc1ccc(O)cc1)C(=O)N[C@@H](CC(=O)O)C(=O)NCC(=O)N[C@@H](CC(=O)O)C(=O)N[C@@H](CC(=O)O)C(=O)N2
koff [1]: 0.00329 s⁻¹ | kon [1]: 224 M⁻¹ s⁻¹

B2: sunflower trypsin inhibitor SFTI-1 (peptide)
peptide: cyclo(CTKSIPPICFPDGR)
modifications: disulfide 1-9 (inferred)
Kd [1]: > 500 µM
